Experimental findings from the Human Domainome abundance scans (Beltran et al. 2025) are described below.

B1: SH3 and PX domain-containing protein 2B, residues 155 to 209; numbered along this chain, A1X283 (parent)
chain: EQYVVVANYQKQESSEISLSVGQVVDIIEKNESGWWFVSTAEEQGWVPATCLEGQ

± gives the uncertainty stated by the source.

Variants of B1 are the subject of the data set. The experiment in a line: abundance fitness (aPCA) (normalised: wild type 0, dead -1); higher = more abundant; growth selection in yeast, the domain comes from the species named. The conditions noted are these: Homo sapiens.
With EQYVVKANYQKQESSEISLSVGQVVDIIEKNESGWWFVSTAEEQGWVPATCLEGQ [V6K], the abundance fitness was found to be 0.056 ± 0.15. For EQYVVSANYQKQESSEISLSVGQVVDIIEKNESGWWFVSTAEEQGWVPATCLEGQ [V6S], the abundance fitness is -0.087 ± 0.11. To EQYVVNANYQKQESSEISLSVGQVVDIIEKNESGWWFVSTAEEQGWVPATCLEGQ [V6N] belongs -0.214 ± 0.25; to EQYVVWANYQKQESSEISLSVGQVVDIIEKNESGWWFVSTAEEQGWVPATCLEGQ [V6W], -0.326 ± 0.1; to EQYVVGANYQKQESSEISLSVGQVVDIIEKNESGWWFVSTAEEQGWVPATCLEGQ [V6G], -0.151 ± 0.061. To EQYVVAANYQKQESSEISLSVGQVVDIIEKNESGWWFVSTAEEQGWVPATCLEGQ [V6A] belongs 0.049 ± 0.087; to EQYVVEANYQKQESSEISLSVGQVVDIIEKNESGWWFVSTAEEQGWVPATCLEGQ [V6E], -0.366 ± 0.11; to EQYVVQANYQKQESSEISLSVGQVVDIIEKNESGWWFVSTAEEQGWVPATCLEGQ [V6Q], -0.199 ± 0.14. For the variant EQYVVCANYQKQESSEISLSVGQVVDIIEKNESGWWFVSTAEEQGWVPATCLEGQ [V6C], the abundance fitness was -0.151 ± 0.15. Regarding EQYVVLANYQKQESSEISLSVGQVVDIIEKNESGWWFVSTAEEQGWVPATCLEGQ [V6L], the abundance fitness is -0.199 ± 0.11. To EQYVVVANYQAQESSEISLSVGQVVDIIEKNESGWWFVSTAEEQGWVPATCLEGQ [K11A] belongs -0.106 ± 0.081. On to EQYVVVANYQGQESSEISLSVGQVVDIIEKNESGWWFVSTAEEQGWVPATCLEGQ [K11G], for which the abundance fitness is -0.015 ± 0.054. Regarding EQYVVVANYQLQESSEISLSVGQVVDIIEKNESGWWFVSTAEEQGWVPATCLEGQ [K11L], the abundance fitness was -0.433 ± 0.11. With EQYVVVANYQHQESSEISLSVGQVVDIIEKNESGWWFVSTAEEQGWVPATCLEGQ [K11H] the figure was 0.064 ± 0.14; with EQYVVVANYQFQESSEISLSVGQVVDIIEKNESGWWFVSTAEEQGWVPATCLEGQ [K11F], -0.689 ± 0.19.

For the variant EQYVVVANYQEQESSEISLSVGQVVDIIEKNESGWWFVSTAEEQGWVPATCLEGQ [K11E], the abundance fitness was -0.183 ± 0.11. To EQYVVVANDQKQESSEISLSVGQVVDIIEKNESGWWFVSTAEEQGWVPATCLEGQ [Y9D] belongs -0.491 ± 0.1; to EQYVVVANQQKQESSEISLSVGQVVDIIEKNESGWWFVSTAEEQGWVPATCLEGQ [Y9Q], -0.744 ± 0.15; to EQYVVVANMQKQESSEISLSVGQVVDIIEKNESGWWFVSTAEEQGWVPATCLEGQ [Y9M], -0.508 ± 0.13. To EQYVVVANRQKQESSEISLSVGQVVDIIEKNESGWWFVSTAEEQGWVPATCLEGQ [Y9R] belongs -0.21 ± 0.071.

As for EQYVVVANCQKQESSEISLSVGQVVDIIEKNESGWWFVSTAEEQGWVPATCLEGQ [Y9C], the abundance fitness is -0.648 ± 0.14. With EQYVVVANIQKQESSEISLSVGQVVDIIEKNESGWWFVSTAEEQGWVPATCLEGQ [Y9I] the figure was -0.809 ± 0.37; with EQYVVVANGQKQESSEISLSVGQVVDIIEKNESGWWFVSTAEEQGWVPATCLEGQ [Y9G], -0.81 ± 0.083. Consider EQYVVVANAQKQESSEISLSVGQVVDIIEKNESGWWFVSTAEEQGWVPATCLEGQ [Y9A], for which the abundance fitness was -0.774 ± 0.12. With EQYVVVANNQKQESSEISLSVGQVVDIIEKNESGWWFVSTAEEQGWVPATCLEGQ [Y9N] the figure was -0.616 ± 0.22; with EQYVVVANSQKQESSEISLSVGQVVDIIEKNESGWWFVSTAEEQGWVPATCLEGQ [Y9S], -0.484 ± 0.091. For EQYVVVANWQKQESSEISLSVGQVVDIIEKNESGWWFVSTAEEQGWVPATCLEGQ [Y9W], the abundance fitness amounted to 0.094 ± 0.12. With EQYVVVANFQKQESSEISLSVGQVVDIIEKNESGWWFVSTAEEQGWVPATCLEGQ [Y9F] the figure was 0.011 ± 0.12; with EQYVVVANKQKQESSEISLSVGQVVDIIEKNESGWWFVSTAEEQGWVPATCLEGQ [Y9K], -0.619 ± 0.12; with EQYVVVANEQKQESSEISLSVGQVVDIIEKNESGWWFVSTAEEQGWVPATCLEGQ [Y9E], -0.597 ± 0.11. Regarding EQYVVVANVQKQESSEISLSVGQVVDIIEKNESGWWFVSTAEEQGWVPATCLEGQ [Y9V], the abundance fitness is -0.249 ± 0.074. With EQYVVVANTQKQESSEISLSVGQVVDIIEKNESGWWFVSTAEEQGWVPATCLEGQ [Y9T] the figure was -0.312 ± 0.11. With EQYVVVINYQKQESSEISLSVGQVVDIIEKNESGWWFVSTAEEQGWVPATCLEGQ [A7I] the figure was -0.32 ± 0.12. Take EQYVVVGNYQKQESSEISLSVGQVVDIIEKNESGWWFVSTAEEQGWVPATCLEGQ [A7G]: the abundance fitness was -0.098 ± 0.058. Take EQYVVVENYQKQESSEISLSVGQVVDIIEKNESGWWFVSTAEEQGWVPATCLEGQ [A7E]: the abundance fitness is -0.088 ± 0.1.

Regarding EQYVVVNNYQKQESSEISLSVGQVVDIIEKNESGWWFVSTAEEQGWVPATCLEGQ [A7N], the abundance fitness was -0.09 ± 0.15.

Consider EQYVVVSNYQKQESSEISLSVGQVVDIIEKNESGWWFVSTAEEQGWVPATCLEGQ [A7S], for which the abundance fitness was -0.052 ± 0.083. Take EQYVVVQNYQKQESSEISLSVGQVVDIIEKNESGWWFVSTAEEQGWVPATCLEGQ [A7Q]: the abundance fitness was -0.106 ± 0.11. In the case of EQYVVVYNYQKQESSEISLSVGQVVDIIEKNESGWWFVSTAEEQGWVPATCLEGQ [A7Y], the abundance fitness came to 0.025 ± 0.12. On to EQYVVVLNYQKQESSEISLSVGQVVDIIEKNESGWWFVSTAEEQGWVPATCLEGQ [A7L], for which the abundance fitness was -0.101 ± 0.081. On to EQYVVVFNYQKQESSEISLSVGQVVDIIEKNESGWWFVSTAEEQGWVPATCLEGQ [A7F], for which the abundance fitness was -0.076 ± 0.17.

Regarding EQYVVVCNYQKQESSEISLSVGQVVDIIEKNESGWWFVSTAEEQGWVPATCLEGQ [A7C], the abundance fitness is -0.25 ± 0.093. To EQYVVVDNYQKQESSEISLSVGQVVDIIEKNESGWWFVSTAEEQGWVPATCLEGQ [A7D] belongs -0.046 ± 0.14; to EQYVVVWNYQKQESSEISLSVGQVVDIIEKNESGWWFVSTAEEQGWVPATCLEGQ [A7W], -0.286 ± 0.11; to EQYVVVMNYQKQESSEISLSVGQVVDIIEKNESGWWFVSTAEEQGWVPATCLEGQ [A7M], -0.15 ± 0.12.

For the variant EQYVVVKNYQKQESSEISLSVGQVVDIIEKNESGWWFVSTAEEQGWVPATCLEGQ [A7K], the abundance fitness is -0.024 ± 0.12. To EQYVVVRNYQKQESSEISLSVGQVVDIIEKNESGWWFVSTAEEQGWVPATCLEGQ [A7R] belongs -0.066 ± 0.075; to EQYVVVHNYQKQESSEISLSVGQVVDIIEKNESGWWFVSTAEEQGWVPATCLEGQ [A7H], -0.394 ± 0.2.
